Experimental data published in publication PMC10881741, “Structural modifications toward improved lead-203/lead-212 peptide-based image-guided alpha-particle radiopharmaceutical therapies for neuroendocrine tumors” (European Journal of Nuclear Medicine and Molecular Imaging, 2023).
Read-outs that look alike come from different tables or passages of the source.

Columns and labels:
SSTR2 = target: T1, SSTR2 (Rattus norvegicus, UniProt P30680); assay: In vitro competitive binding assay ([^125I]I-TOC displacement in AR42J cells)
T1 construct: host or cells: AR42J rat pancreatic acinar cells
T1 sequence (P30680 whole entry): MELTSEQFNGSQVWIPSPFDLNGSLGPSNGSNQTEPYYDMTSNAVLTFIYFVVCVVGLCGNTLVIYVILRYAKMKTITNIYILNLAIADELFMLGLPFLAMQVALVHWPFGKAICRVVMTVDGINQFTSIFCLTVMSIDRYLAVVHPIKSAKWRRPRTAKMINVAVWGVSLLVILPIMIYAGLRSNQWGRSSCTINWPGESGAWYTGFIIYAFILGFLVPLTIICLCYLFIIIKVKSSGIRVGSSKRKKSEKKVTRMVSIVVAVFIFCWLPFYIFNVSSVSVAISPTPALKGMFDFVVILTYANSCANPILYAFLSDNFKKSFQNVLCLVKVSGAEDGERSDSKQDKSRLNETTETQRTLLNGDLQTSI
Method: SSTR2-positive AR42J rat pancreatic acinar cells were purchased from the American Type Culture Collection (ATCC; CRL-1492) and were cultured in RPMI 1640 medium, supplemented with 10% fetal bovine serum (FBS), 2 mM glutamine, and antibiotics (0.1 mg/mL streptomycin and 100 IU penicillin) at 37 °C under a humidified condition (5% CO2). The cells were plated into poly-D-lysine-coated 24-well plates at a density of 1.0 × 10^5 cells per well. […] Cells were then washed twice with ice-cold PBS and lysed with 0.5 N NaOH. The radioactivities of the harvested samples were measured using an automated gamma counter (PerkinElmer Cobra II; PerkinElmer, Freemont, CA). IC50 was determined using GraphPad Prism V8.0.

[1] = Stability in water and human serum (radio-HPLC); type: in vitro ADME; details: ^203Pb-labeled, 37 °C, up to 24 h
Excerpt: New peptides were designed and synthesized using standard fluorenylmethyloxycarbonyl (Fmoc)-based solid phase peptide synthesis. The peptides were developed under two basic strategies: (a) a click cyclization approach to substitute the disulfide bond of TOC with a triazole link, which potentially improves PK and in vivo stability; and (b) Pb-specific structural optimization based on TOC by incorporating the new chelator composition and various sizes of PEG linkers (Fig. 1 and Table 1). […] The radiolabeling and purification process for the preparation of ^203Pb/^212Pb-labeled peptides followed the methods outlined in a previously published study. […] The stability of the most promising RPDC, [^203Pb]Pb-PSC-PEG2-TOC, was evaluated in water and normal human serum up to 24 h of incubation at 37 °C using the radio-HPLC system. Furthermore, PSC-PEG2-TOC was assessed for a radiolabeling yield with clinically relevant ^203Pb activity (1.8–3.6 GBq) to assess changes in performance with increases in molar activity (MBq/nmol; Supplementary Material).
PSC-PEG2-TOC was characterized for stability in water and human serum. […] The penetrate by centrifugation (serum samples) or the samples in water were analyzed by a radio-HPLC system (Agilent 1200 Series connected with an IN/US β-RAM Model 4 radio-detector) to monitor the degree of peptide degradation.

[2] = In vivo biodistribution of ^203Pb-labeled peptides; set-up: species or system mice; details: female, athymic nu/nu, mouse, intravenous, 37 kBq, total radioactivity; for tissue uptake at 3 h: 3 h post-administration; for tissue uptake at 24 h: 24 h post-administration; for tissue uptake at 1 h: 1 h post-administration
Method: AR42J cells (5.0 × 10^6 cells/animal) were implanted subcutaneously on the left shoulder of female athymic nu/nu mice. […] Extra groups of mice were co-administered 37 kBq of ^203Pb-PSC-PEG2-TOC with DL-lysine (400 mg/kg) to determine the effect of amino acid on renal uptake of the radiopharmaceutical. Mice (n=3 per time point) were euthanized at 1, 3, and 24 h post-administration, and tumors and organs/tissues of interest were excised and weighed. The radioactivities of the samples were measured using the gamma counter.

midgut NETs = tested on: midgut NETs; set-up: method as in PMID 28076709, PMID 28428192; details: patients with midgut NETs ref 5, 6; cited from earlier work
[3] = large intestine, read-out: Large intestine
[4] = small intestine, read-out: Small intestine

With `C[C@@H](O)[C@@H]1NC(=O)[C@H](CCCCN)NC(=O)[C@@H](Cc2c[nH]c3ccccc23)NC(=O)[C@H](Cc2ccc(O)cc2)NC(=O)[C@@H](NC(=O)[C@@H](Cc2ccccc2)NC(=O)CCOCCOCCNC(=O)CN2CCN(CC(=O)O)CCN(CC(N)=O)CCN(CC(=O)O)CC2)CSSC[C@@H](C(=O)N[C@H](CO)[C@@H](C)O)NC1=O` [PSC-PEG2-TOC, PSC-PEG2-D-Phe-cyclo[Cys-Tyr-D-Trp-Lys-Thr-Cys]-Thr-OH] the “Improvement in affinity vs. DOTATOC (factor)” value (SSTR2) was greater than 2 and the “Radiochemical and metabolic stability” value [1] was “robust radiochemical stability”.

`C[C@@H](O)[C@@H]1NC(=O)[C@H](CCCCN)NC(=O)[C@@H](Cc2c[nH]c3ccccc23)NC(=O)[C@H](Cc2ccc(O)cc2)NC(=O)[C@@H](NC(=O)[C@@H](Cc2ccccc2)NC(=O)CN2CCN(CC(=O)O)CCN(CC(=O)O)CCN(CC(=O)O)CC2)CSSC[C@@H](C(=O)N[C@H](CO)[C@@H](C)O)NC1=O` [[^203Pb]Pb-DOTATOC, metal not drawn, reference compound] showed a tissue uptake at 3 h ([2]; blood, read-out: Blood) of 0.02 %ID/g, a tissue uptake at 24 h ([2]; blood, read-out: Blood) of 0.01 %ID/g and a tissue uptake at 1 h ([2]; brain, read-out: Brain) of 0.03 ± 0.01 %ID/g. It also gave a tissue uptake at 3 h ([2]; brain, read-out: Brain) of 0.01 %ID/g, a tissue uptake at 24 h ([2]; brain, read-out: Brain) of 0.01 %ID/g and a tissue uptake at 3 h ([2]; heart, read-out: Heart) of 0.07 ± 0.05 %ID/g. It also gave a tissue uptake at 24 h ([2]; heart, read-out: Heart) of 0.02 ± 0.01 %ID/g, a tissue uptake at 1 h ([2]; kidneys, read-out: Kidneys) of 12.2 %ID/g and a tissue uptake at 3 h ([2]; kidneys, read-out: Kidneys) of 14.6 ± 2.34 %ID/g. For the same compound, the tissue uptake at 24 h ([2]; kidneys, read-out: Kidneys) was 7.6 %ID/g, the tissue uptake at 1 h [2, 3] was 0.32 ± 0.12 %ID/g and the tissue uptake at 3 h [2, 3] was 1.11 ± 0.74 %ID/g. The tissue uptake at 24 h [2, 3] was 0.17 ± 0.04 %ID/g, the tissue uptake at 1 h ([2]; liver, read-out: Liver) was 0.28 ± 0.05 %ID/g and the tissue uptake at 3 h ([2]; liver, read-out: Liver) was 0.16 ± 0.02 %ID/g. The tissue uptake at 24 h ([2]; liver, read-out: Liver) was 0.08 ± 0.01 %ID/g, the tissue uptake at 1 h ([2]; lung, read-out: Lung) was 0.91 ± 0.41 %ID/g and the tissue uptake at 3 h ([2]; lung, read-out: Lung) was 0.59 ± 0.23 %ID/g. For the same compound, the tissue uptake at 24 h ([2]; lung, read-out: Lung) was 0.27 ± 0.04 %ID/g, the tissue uptake at 1 h ([2]; muscle, read-out: Muscle) was 0.1 ± 0.03 %ID/g and the tissue uptake at 3 h ([2]; muscle, read-out: Muscle) was 0.04 ± 0.01 %ID/g. It also gave a tissue uptake at 24 h ([2]; muscle, read-out: Muscle) of 0.02 %ID/g, a tissue uptake at 1 h [2, 4] of 1.91 ± 0.8 %ID/g and a tissue uptake at 3 h [2, 4] of 1.78 ± 2.19 %ID/g. The tissue uptake at 24 h [2, 4] was 0.08 ± 0.06 %ID/g, the tissue uptake at 1 h ([2]; spleen, read-out: Spleen) was 0.27 ± 0.05 %ID/g and the tissue uptake at 24 h ([2]; spleen, read-out: Spleen) was 0.1 ± 0.01 %ID/g. It also gave a tissue uptake at 1 h ([2]; tumor, read-out: Tumor) of 4.6 ± 0.18 %ID/g, a tissue uptake at 3 h ([2]; tumor, read-out: Tumor) of 4.47 ± 0.75 %ID/g and a tissue uptake at 24 h ([2]; tumor, read-out: Tumor) of 2.44 ± 0.19 %ID/g.

For [^177Lu]Lu-DOTATATE, the Complete response rate (midgut NETs) is listed as 1% and the Objective responses (midgut NETs) is listed as 18–30%.
